From patent publication US20180250415A1 (Scripps Research, published 2018) come the findings set out here.

Test [1] concerns the target T1, CD138 (human, UniProt P18827 23-310).
T1 construct: whole, on cells; also called CD138 on H929 and U266 cells
T1 sequence (looked up): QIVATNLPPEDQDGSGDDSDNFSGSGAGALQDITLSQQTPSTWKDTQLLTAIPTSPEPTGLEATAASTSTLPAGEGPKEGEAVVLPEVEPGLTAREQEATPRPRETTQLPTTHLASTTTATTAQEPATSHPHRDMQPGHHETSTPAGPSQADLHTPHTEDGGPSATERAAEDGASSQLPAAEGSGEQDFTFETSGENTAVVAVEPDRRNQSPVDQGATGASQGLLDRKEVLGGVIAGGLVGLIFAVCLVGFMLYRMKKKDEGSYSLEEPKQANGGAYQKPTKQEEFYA
The experiment in a line: flow cytometry on H929 and U266 (CD138+) cells, detected with 647-conjugated F(ab')2 donkey anti-human Fc [CONT.]. As for the experimental part:
(§1) The binding activities of these DVDs are also tested against target expressing cells. […] The cells are washed with 200 μL flow cytometry buffer (PBS, 2% (w/v) FBS, pH 7.4), are incubated with DVD1 or DVD2 for 30 min on ice, are washed with 200 μL flow cytometry buffer, and are stained with 647 conjugated polyclonal (Fab′)₂ donkey anti-human Fc (Jackson ImmunoResearch Laboratories) for 20 min on ice. After washing twice with 200 μL ice-cold flow cytometry buffer, the cells are analyzed using a Canto II Flow Cytometer (Becton-Dickinson). Data were analyzed using FlowJo software (Tree Star).
In general terms: In flow cytometry, cells or beads pass a laser one at a time.

In test [2] the target is T2, CD79b (UniProt P40259 29-229, limits assumed).
T2 construct: whole, on cells; also called CD79b on Ramos cells
T2 sequence (looked up): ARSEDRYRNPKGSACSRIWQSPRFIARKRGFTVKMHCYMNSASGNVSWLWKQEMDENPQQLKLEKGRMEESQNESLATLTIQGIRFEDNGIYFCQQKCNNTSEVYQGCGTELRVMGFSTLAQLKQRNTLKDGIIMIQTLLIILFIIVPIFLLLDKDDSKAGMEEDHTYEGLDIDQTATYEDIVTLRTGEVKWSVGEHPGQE
The experiment in a line: flow cytometry on Ramos (CD79b+) cells, detected with 647-conjugated F(ab')2 donkey anti-human Fc [CONT.]. As for the experimental part:
as §1

The target of test [3] is T3, HER2 (human, UniProt P04626 23-1255).
T3 construct: whole, on cells; also called ERBB2; HER2 on SK-BR-3 (SKBR3) cells
As to the kind of experiment: flow cytometry on SK-BR-3 (SKBR3, HER2+) cells, detected with 647-conjugated F(ab')2 donkey anti-human Fc. As for the experimental part: as §1

B1: CD138-h38C2-DVD1 immunoglobulin (antibody, human IgG1, kappa)
light: DIQMTQSTSSLSASLGDRVTISCSASQGINNYLNWYQQKPDGTVELLIYYTSTLQSGVPSRFSGSGSGTDYSLTISNLEPEDIGTYYCQQYSKLPRTFGGGTKLEIKASTKGPELQMTQSPSSLSASVGDRVTITCRSSQSLLHTYGSPYLNWYLQKPGQSPKLLIYKVSNRFSGVPSRFSGSGSGTDFTLTISSLQPEDFAVYFCSQGTHLPYTFGGGTKVEIKRTVAAPSVFIFPPSDEQLKSGTASVVCLLNNFYPREAKVQWKVDNALQSGNSQESVTEQDSKDSTYSLSSTLTLSKADYEKHKVYACEVTHQGLSSPVTKSFNRGEC
heavy: not shown
notes: also called CD138 DVD; anti-CD138 DVD1
For the molecule B1, in test [1], the binding result is given as “binds”.

B2: h38C2 IgG1 (antibody, V domains shown)
VH: EVQLVESGGGLVQPGGSLRLSCAASGFTFSNYWMSWVRQSPEKGLEWVSEIRLRSDNYATHYAESVKGRFTISRDNSKNTLYLQMNSLRAEDTGIYYCKTYFYSFSYWGQGTLVTVSS
VL: ELQMTQSPSSLSASVGDRVTITCRSSQSLLHTYGSPYLNWYLQKPGQSPKLLIYKVSNRFSGVPSRFSGSGSGTDFTLTISSLQPEDFAVYFCSQGTHLPYTFGGGTKVEIK
notes: also called parent h38C2 IgG1; unconjugated humanized 38C2 antibody
On to B2, for which the binding result in test [2], in test [1] and in test [3] was “no binding” in each case.
